Source: patent publication US20220213176A1 (SHANGHAITECH UNIVERSITY, published 2022)

What was measured:
[1] = molecular target: wild-type SARS-CoV-2 pseudovirus spike (spikeΔ19) (SARS-CoV-2, UniProt P0DTC2 14-1254); assay: cell-based or functional assay
[2] = molecular target: SARS-CoV-2 N501Y+D614G mutant pseudovirus spike (spikeΔ19) (SARS-CoV-2, UniProt P0DTC2 14-1254); assay: cell-based or functional assay
[3] = molecular target: SARS-CoV-2 K417N+E484K+N501Y+D614G mutant pseudovirus spike (spikeΔ19) (SARS-CoV-2, UniProt P0DTC2 14-1254); assay: cell-based or functional assay
[4] = molecular target: SARS-CoV-2 B.1.617.2 pseudovirus spike (SARS-CoV-2); assay: cell-based or functional assay
[5] = molecular target: T1, B.1.351 S-RBD (SARS-CoV-2, UniProt P0DTC2 319-541); assay: BLI (Octet RED96), biotin B.1.351 S-RBD on SA sensor, 1:1 fit
T1 construct: also called spike RBD of B.1.351 (Beta Strain)

[6] = molecular target: T1, B.1.351 S-RBD; assay: BLI (Octet RED96), biotinylated B.1.351 S-RBD on SA biosensor, 1:1 binding model

Row | Binder | NT50, wild-type SARS-CoV-2 pseudovirus neutralization [1] [nM] | NT50, N501Y+D614G spike pseudovirus neutralization [2] [nM] | NT50 (B.1.351) (nM), pseudovirus neutralization [3] [nM] | NT50 (B.1.617.2) (nM), pseudovirus neutralization [4] [nM] | Kd [5] [nM] | Kd [6] [nM]
1 | S-D4 (antibody, V domains shown, also called S-D4 dimer; S-D4 IgG4) VH: QVQLQESGGGVVQPGRSLRLSCEVSGFTFSDYGMHWVRQAPGKGLEWVAVIWSEGSTEYYADSVKGRFTISRDNSKDTLYLQMNSLRAEDTAVYYCARPGYPTSTDRSPAAAGARQYYYYGMDVWGQGTTVTVSS VL: NFMLTQPHSVSESPGKTVTISCTRSGGSGAANYVQWYQQRPGSSPTTLIYEDSRRPPGVPDRFSGSVDTSSNSASLTISGLQTEDEADYYCQSYDSSNHVVFGGGTKLTVLG | 0.48 | 0.042 | 0.66 | 0.24 | – | –
2 | S-E6 trimer (T4F) (other, also called trimer S-E6; trimeric S-E6) heavy: QVTLRESGPGLVKPSETLSLTCAVSGGSLSSVNYYWSWIRQHPGKGLEWIGYIYYSGSTNYNPSLKSRVTMSLDTSKNQFSLKLSSVTAADTAVYYCATPGAIMGALHIWGQGTLVTVSSASTKGPSVFPLAPSSKSTSGGTAALGCLVKDYFPEPVTVSWNSGALTSGVHTFPAVLQSSGLYSLSSVVTVPSSSLGTQTYICNVNHKPSNTKVDKKVEPPKSGGGGSGGGGSGGGGSPGSGYIPEAPRDGQAYVRKDGEWVLLSTFLGHHHHHH light: QAVLTQPSSASSTPGQRVIISCSGSSSNIGSNTVSWYQQVPGAAPKLLIYFDYRRPSGVPDRFSGTRSGTSASLGISGLQSEDEADYYCAAWDDSLSAWVFGRGTKLTVLGGLGGLVDYKGQPKAAPSVTLFPPSSEELQANKATLVCLISDFYPGAVTVAWKADSSPVKAGVETTTPSKQSNNKYAASSYLSLTPEQWKSHRSYSCQVTHEGSTVEKTVAPTECS | – | – | – | 0.007 | 0.58 | 0.576
3 | S-E6 (antibody, V domains shown, also called S-E6 dimer; dimer S-E6) VH: QVTLRESGPGLVKPSETLSLTCAVSGGSLSSVNYYWSWIRQHPGKGLEWIGYIYYSGSTNYNPSLKSRVTMSLDTSKNQFSLKLSSVTAADTAVYYCATPGAIMGALHIWGQGTLVTVSS VL: QAVLTQPSSASSTPGQRVIISCSGSSSNIGSNTVSWYQQVPGAAPKLLIYFDYRRPSGVPDRFSGTRSGTSASLGISGLQSEDEADYYCAAWDDSLSAWVFGRGTKLTVLG | 0.025 | 0.021 | 0.32 | 0.065 | – | –
4 | S-B8 (antibody, V domains shown, also called S-B8 dimer) VH: QVQLVQSGGGLIQPGGSLRLSCAASGFTVSLSHMNWVRQAPGKGLEWVSITYGDGNSDYADSVKGRFTISRDNSKNTLYLQMNSLRAEDTAVYYCAREYYYGMDVWGQGTTVTVSS VL: not shown | – | 0.53 | 1.2 | 0.37 | – | –
5 | S-B8 trimer (other) heavy: QVQLVQSGGGLIQPGGSLRLSCAASGFTVSLSHMNWVRQAPGKGLEWVSITYGDGNSDYADSVKGRFTISRDNSKNTLYLQMNSLRAEDTAVYYCAREYYYGMDVWGQGTTVTVSSASTKGPSVFPLAPSSKSTSGGTAALGCLVKDYFPEPVTVSWNSGALTSGVHTFPAVLQSSGLYSLSSVVTVPSSSLGTQTYICNVNHKPSNTKVDKKVEPPKSGGGGSGGGGSGGGGSPGSGYIPEAPRDGQAYVRKDGEWVLLSTFLGHHHHHH light: not shown | – | – | 0.35 | 0.15 | – | –
